The values that follow come from ChEMBL document CHEMBL4828702, “Identification of Novel High-Affinity Substrates of OCT1 Using Machine Learning-Guided Virtual Screening and Experimental Validation” (J Med Chem, 2021).

Data set [1] addresses Solute carrier family 22 member 1 (Homo sapiens) (UniProt O15245). Put plainly: Substrate activity at human OCT1 expressed in HEK293 cells assessed as increase in compound uptake by measuring intrinsic clearance incubated for 2 mins by LC-MS/MS analysis.
In another data set the test system is OCT1. Put plainly: Ratio of drug uptake in human OCT1 expressing HEK293 cells at 2.5 uM to drug uptake in empty vector transfected human HEK293 cells at 2.5 uM. The class given is ADME, cell-based.
Substrate in data set [2]: CC(CCc1ccc(O)cc1)NCC(O)c1ccc(O)cc1
As to the kind of experiment: (§1) Substrate activity at human OCT1 expressed in HEK293 cells assessed as increase in compound uptake by measuring Km incubated for 2 mins by LC-MS/MS analysis. It is filed as cell-based.

Substrate in data set [3]: C[N+]1(C)CCN(c2ccccc2)CC1
Described as §1. The class given is cell-based.

Substrate in data set [4]: CC(C)NC[C@H](O)COc1ccc(O)cc1
The description is as §1. It is filed as cell-based.

Substrate in data set [5]: CC(C)NCC(O)c1ccc(NS(C)(=O)=O)cc1
The data set is described as §1. It is filed as cell-based.

Substrate in data set [6]: C[N+]1(C)[C@@H]2C[C@H](OC(=O)[C@H](CO)c3ccccc3)C[C@H]1[C@@H]1O[C@@H]12
Described as §1. The class given is cell-based.

Substrate in data set [7]: C[N+]1(CCC(C(N)=O)(c2ccccc2)c2ccccc2)CCCCC1
The data set is described as §1. It is filed as cell-based.

Substrate in data set [8]: NC(N)=Nc1nc(CSCC/C(N)=N/S(N)(=O)=O)cs1
Described as §1. It is filed as cell-based.

Substrate in data set [9]: NCC(O)c1cccc(O)c1
Described as §1. It is filed as cell-based.

Substrate in data set [10]: CNC[C@H](O)c1cccc(O)c1
The description is as §1. It is filed as cell-based.

Substrate in data set [11]: N=C(N)NC(=O)Cc1c(Cl)cccc1Cl
Described as §1. It is filed as cell-based.

Substrate in data set [12]: CCN(CC)C(=O)C1(c2ccccc2)CC1CN
The description is as §1. It is filed as cell-based.

Substrate in data set [13]: CC(CCc1ccc(O)cc1)NCCc1ccc(O)c(O)c1
The description is as §1. The class given is cell-based.

Substrate in data set [14]: NCC(O)c1ccc(O)cc1
The data set is described as §1. It is filed as cell-based.

Substrate in data set [15]: CC[N+](CC)(CC)Cc1ccccc1
The description is as §1. The class given is cell-based.

Substrate in data set [16]: N=C(N)NCc1cccc(I)c1
The data set is described as §1. It is filed as cell-based.

Substrate in data set [17]: CC[N+](CC)(CC(=O)Nc1c(C)cccc1C)Cc1ccccc1
The data set is described as §1. It is filed as cell-based.

Substrate in data set [18]: CC[N+](C)(C)c1cccc(O)c1
Described as §1. It is filed as cell-based.

Substrate in data set [19]: Nc1ccncc1N
Described as §1. The class given is cell-based.

Substrate in data set [20]: CN[C@@H]1CCc2[nH]c3ccc(C(N)=O)cc3c2C1
The description is as §1. It is filed as cell-based.

Substrate in data set [21]: CCN(CC)CCNC(=O)c1ccc(NS(C)(=O)=O)cc1
Described as §1. It is filed as cell-based.

Substrate in data set [22]: CC(NCCc1ccc(O)cc1)C(O)c1ccc(O)cc1
The data set is described as §1. It is filed as cell-based.

Substrate in data set [23]: CC(CCc1ccc(O)cc1)NCC(O)c1ccc(O)cc1
As to the kind of experiment: (§2) Substrate activity at human OCT1 expressed in HEK293 cells assessed as increase in compound uptake by measuring Vmax incubated for 2 mins by LC-MS/MS analysis. It is filed as cell-based.

Substrate in data set [24]: C[N+]1(C)CCN(c2ccccc2)CC1
Described as §2. It is filed as cell-based.

Substrate in data set [25]: CC(C)NC[C@H](O)COc1ccc(O)cc1
The data set is described as §2. The class given is cell-based.

Substrate in data set [26]: CC(C)NCC(O)c1ccc(NS(C)(=O)=O)cc1
The description is as §2. It is filed as cell-based.

Substrate in data set [27]: C[N+]1(C)[C@@H]2C[C@H](OC(=O)[C@H](CO)c3ccccc3)C[C@H]1[C@@H]1O[C@@H]12
The data set is described as §2. The class given is cell-based.

Substrate in data set [28]: C[N+]1(CCC(C(N)=O)(c2ccccc2)c2ccccc2)CCCCC1
Described as §2. The class given is cell-based.

Substrate in data set [29]: NC(N)=Nc1nc(CSCC/C(N)=N/S(N)(=O)=O)cs1
The description is as §2. It is filed as cell-based.

Substrate in data set [30]: NCC(O)c1cccc(O)c1
The data set is described as §2. It is filed as cell-based.

Substrate in data set [31]: CNC[C@H](O)c1cccc(O)c1
The data set is described as §2. The class given is cell-based.

Substrate in data set [32]: N=C(N)NC(=O)Cc1c(Cl)cccc1Cl
The data set is described as §2. The class given is cell-based.

Substrate in data set [33]: CCN(CC)C(=O)C1(c2ccccc2)CC1CN
The data set is described as §2. The class given is cell-based.

Substrate in data set [34]: CC(CCc1ccc(O)cc1)NCCc1ccc(O)c(O)c1
Described as §2. It is filed as cell-based.

Substrate in data set [35]: NCC(O)c1ccc(O)cc1
The description is as §2. The class given is cell-based.

Substrate in data set [36]: CC[N+](CC)(CC)Cc1ccccc1
Described as §2. The class given is cell-based.

Substrate in data set [37]: N=C(N)NCc1cccc(I)c1
The description is as §2. It is filed as cell-based.

Substrate in data set [38]: CC[N+](CC)(CC(=O)Nc1c(C)cccc1C)Cc1ccccc1
The description is as §2. The class given is cell-based.

Substrate in data set [39]: CC[N+](C)(C)c1cccc(O)c1
Described as §2. The class given is cell-based.

Substrate in data set [40]: Nc1ccncc1N
The data set is described as §2. The class given is cell-based.

Substrate in data set [41]: CN[C@@H]1CCc2[nH]c3ccc(C(N)=O)cc3c2C1
Described as §2. It is filed as cell-based.

Substrate in data set [42]: CCN(CC)CCNC(=O)c1ccc(NS(C)(=O)=O)cc1
The description is as §2. The class given is cell-based.

Substrate in data set [43]: CC(NCCc1ccc(O)cc1)C(O)c1ccc(O)cc1
The description is as §2. The class given is cell-based.

Sequence of Solute carrier family 22 member 1 (Homo sapiens) (O15245 whole entry, looked up): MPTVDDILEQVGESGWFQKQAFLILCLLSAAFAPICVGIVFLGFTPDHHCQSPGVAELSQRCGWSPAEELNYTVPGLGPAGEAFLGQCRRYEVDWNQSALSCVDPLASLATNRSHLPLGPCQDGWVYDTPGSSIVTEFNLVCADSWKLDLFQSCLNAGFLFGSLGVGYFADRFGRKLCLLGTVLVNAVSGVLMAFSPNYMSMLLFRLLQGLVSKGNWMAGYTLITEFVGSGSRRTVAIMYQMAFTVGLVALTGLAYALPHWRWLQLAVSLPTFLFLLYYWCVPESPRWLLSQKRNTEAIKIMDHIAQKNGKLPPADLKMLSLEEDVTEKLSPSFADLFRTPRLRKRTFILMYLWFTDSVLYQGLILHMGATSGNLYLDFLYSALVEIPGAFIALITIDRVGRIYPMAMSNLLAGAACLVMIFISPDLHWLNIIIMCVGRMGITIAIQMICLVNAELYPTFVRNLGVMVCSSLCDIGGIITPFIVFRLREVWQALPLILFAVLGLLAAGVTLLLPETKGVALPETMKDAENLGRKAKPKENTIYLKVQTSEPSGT

In the case of `CC(CCc1ccc(O)cc1)NCC(O)c1ccc(O)cc1` (stereo unspecified) [RACTOPAMINE], the clearance in data set [1] was determined as 111 mL/min/g. For the same molecule, the uptake ratio at 2.5 µM with OCT1 is 7.1.
As to `N=C(N)NCc1cccc(I)c1` [IOBENGUANE], the clearance in data set [1] amounted to 3160 mL/min/g. For the same molecule, the uptake ratio at 2.5 µM with OCT1 was found to be 10.1.
For `NC(N)=Nc1nc(CSCC/C(N)=N/S(N)(=O)=O)cs1`, the clearance in data set [1] was found to be 87.4 mL/min/g.
As for `C[N+]1(CCC(C(N)=O)(c2ccccc2)c2ccccc2)CCCCC1`, the clearance in data set [1] stood at 114 mL/min/g. Moreover, in the data set on OCT1, the uptake ratio at 2.5 µM was determined as 30.9.
As for `CC[N+](C)(C)c1cccc(O)c1` [EDROPHONIUM], the clearance in data set [1] amounted to 99.5 mL/min/g. In the data set on OCT1, the uptake ratio at 2.5 µM stood at 42.6.
For `CC(CCc1ccc(O)cc1)NCCc1ccc(O)c(O)c1` (stereo unspecified) [DOBUTAMINE], the clearance in data set [1] was found to be 5.2 mL/min/g. For the same molecule, the uptake ratio at 2.5 µM in the data set with OCT1 stood at 14.7.
On to `CC(NCCc1ccc(O)cc1)C(O)c1ccc(O)cc1` (stereo unspecified) [RITODRINE], for which the clearance in data set [1] amounted to 104 mL/min/g. The uptake ratio at 2.5 µM in the data set on OCT1 was 7.6.
The matching figures for `CN[C@@H]1CCc2[nH]c3ccc(C(N)=O)cc3c2C1` [FROVATRIPTAN]: 50.3 mL/min/g and 33.1.
The matching figures for `CCN(CC)CCNC(=O)c1ccc(NS(C)(=O)=O)cc1` [SEMATILIDE]: 3.3 mL/min/g and 3.5.
For `NCC(O)c1cccc(O)c1` (stereo unspecified) [NORFENEFRINE] the same measures were 4.6 mL/min/g and 2.1.
As to `NCC(O)c1ccc(O)cc1` (stereo unspecified), the clearance in [1] came out at 9.1 mL/min/g.
On to `Nc1ccncc1N` [AMIFAMPRIDINE], for which, in data set [1], the clearance worked out at 18.8 mL/min/g. In addition, in the data set on OCT1, the uptake ratio at 2.5 µM is 6.8.
As to `C[N+]1(C)CCN(c2ccccc2)CC1` [DIMETHYLPHENYLPIPERAZINIUM], in data set [1], the clearance worked out at 47.2 mL/min/g. Besides, in the data set with OCT1, the uptake ratio at 2.5 µM amounted to 38.9.
For `CNC[C@H](O)c1cccc(O)c1` [PHENYLEPHRINE] the same measures were 17.3 mL/min/g and 10.6.
`CC[N+](CC)(CC)Cc1ccccc1`: the clearance in data set [1] came out at 62.8 mL/min/g. In addition, in the data set with OCT1, the uptake ratio at 2.5 µM amounted to 67.5.
Take `CC[N+](CC)(CC(=O)Nc1c(C)cccc1C)Cc1ccccc1` [DENATONIUM]: the clearance in data set [1] was 71.4 mL/min/g. The uptake ratio at 2.5 µM with OCT1 was found to be 21.6.
For `N=C(N)NC(=O)Cc1c(Cl)cccc1Cl` [GUANFACINE] the same measures were 138 mL/min/g and 4.3.
The matching figures for `CC(C)NC[C@H](O)COc1ccc(O)cc1` [PRENALTEROL]: 12.4 mL/min/g and 5.3.

B1: POU domain, class 2, transcription factor 1 (Homo sapiens), P14859 (protein)
chain: MNNPSETSKPSMESGDGNTGTQTNGLDFQKQPVPVGGAISTAQAQAFLGHLHQVQLAGTSLQAAAQSLNVQSKSNEESGDSQQPSQPSQQPSVQAAIPQTQLMLAGGQITGLTLTPAQQQLLLQQAQAQAQLLAAAVQQHSASQQHSAAGATISASAATPMTQIPLSQPIQIAQDLQQLQQLQQQNLNLQQFVLVHPTTNLQPAQFIISQTPQGQQGLLQAQNLLTQLPQQSQANLLQSQPSITLTSQPATPTRTIAATPIQTLPQSQSTPKRIDTPSLEEPSDLEELEQFAKTFKQRRIKLGFTQGDVGLAMGKLYGNDFSQTTISRFEALNLSFKNMCKLKPLLEKWLNDAENLSSDSSLSSPSALNSPGIEGLSRRRKKRTSIETNIRVALEKSFLENQKPTSEEITMIADQLNMEKEVIRVWFCNRRQKEKRINPPSSGGTSSSPIKAIFPSPTSLVATTPSLVTSSAATTLTVSPVLPLTSAAVTNLSVTGTSDTTSNNTATVISTAPPASSAVTSPSLSPSPSASASTSEASSASETSTTQTTSTPLSSPLGTSQVMVTASGLQTAAAAALQGAAQLPANASLAAMAAAAGLNPSLMAPSQFAAGGALLSLNPGTLSGALSPALMSNSTLATIQALASGGSLPITSLDATGNLVFANAGGAPNIVTAPLFLNPQNLSLLTSNPVSLVSAAAASAGNSAPVASLHATSTSAESIQNSLFTVASASGAASTTTTASKAQ
As a reminder, the Km is the substrate concentration at which the rate is half of its maximum. The term Vmax denotes the top rate of the reaction or transport when substrate is in excess. In the case of B1, the Michaelis-Menten constant (Km) was 2.1 µM in [2]; 62 µM in [3]; 13.3 µM in [4]; 196 µM in data set [5]; 23.4 µM in data set [6]; 8.6 µM in data set [7]. Besides, the Km in data set [8] came out at 35.7 µM; in [9], 994 µM; in data set [10], 221 µM; in data set [11], 8.6 µM; in [12], 2.26 µM; in data set [13], 28.4 µM. The Km in data set [14] was determined as 389 µM; in data set [15] it was 38.6 µM; in data set [16] it was 15.9 µM; in data set [17] it was 12.6 µM; in [18], 26.4 µM; in [19], 508 µM. The Michaelis-Menten constant (Km) was 61.9 µM in data set [20], 102 µM in data set [21] and 1.67 µM in [22]. In addition, the maximal velocity (Vmax) stood at 234 pmol/mg/min in data set [23]; 2930 pmol/mg/min in [24]; 165 pmol/mg/min in [25]; 2760 pmol/mg/min in data set [26]; 1210 pmol/mg/min in data set [27]; 971 pmol/mg/min in data set [28]. Also, the Vmax in [29] stood at 3120 pmol/mg/min; in data set [30] it was 4550 pmol/mg/min; in data set [31], 3820 pmol/mg/min; in data set [32], 1180 pmol/mg/min; in [33] it was 340 pmol/mg/min; in [34], 147 pmol/mg/min. The maximal velocity (Vmax) in data set [35] was found to be 3540 pmol/mg/min; in data set [36], 2420 pmol/mg/min; in [37], 5030 pmol/mg/min; in data set [38] it was 902 pmol/mg/min; in data set [39], 2630 pmol/mg/min; in data set [40], 9570 pmol/mg/min. For the same molecule, the values for the Vmax in [41], in [42] and in data set [43] were 3110 pmol/mg/min, 338 pmol/mg/min and 173 pmol/mg/min, respectively.
